The values below come from patent US5994296A, “Human mutant tissue factor compositions useful as tissue factor antagonists” (priority 1998, dated 1999).

The subject of the data set is Factor X. As to the kind of experiment: ability to functionally cleave Factor X (reaction rate Vmax) of D44 mutants. Particulars: D44 substitution study. Format: biochemical. Here is the method: The lysate was prepared by treating cell pellets with 15 mM octyl-glucopyranoside for 15 minutes at 37C. followed by a 3-fold dilution. […] Formed TF-VIIa complexes were quantified with substrate factor X added at 100 nM for a fixed time. Samples were then removed from the reaction and quenched in 100 mM EDTA in TBS (20 mM Tris-HCl, 140 mM NaCl, pH 7.4). The formation of Xa in the quenched reaction was determined with the chromogenic peptidyl substrate, Spectrozyme FXa (1.2 mM). The rate of Spectrozyme hydrolysis, measured as the increase in absorbance (mOD/min), was determined at ambient temperature in a kinetic plate reader (Molecular Devices, Mountain View, Calif.) followed by quenching and monitoring of product factor Xa formation using the Spectrozyme FXa.
Additional mhuTF mutants were prepared based on amino acid residue substitutions at amino acid residue position number D44.

B1: R44: mhuTF with arginine substituted in place of D44 (protein, UniProt P13726 33-251, looked up, variant D44R)
extracellular domain: SGTTNTVAAYNLTWKSTNFKTILEWEPKPVNQVYTVQISTKSGRWKSKCFYTTDTECDLTDEIVKDVKQTYLARVFSYPAGNVESTGSAGEPLYENSPEFTPYLETNLGQPTIQSFEQVGTKVNVTVEDERTLVRRNNTFLSLRDVFGKDLIYTLYYWKSSSSGKKTAKTNTNEFLIDVDKGENYCFSVQAVIPSRTVNRKSTDSPVECMGQEKGEFRE
modifications: extracellular domain
notes: mhuTF with arginine substituted in place of D44
On to B1, for which the “loss of function (specific functional activity, Vmax) compared to wild-type” value is reported as 75%. Moreover, where the note is “Factor X cleavage”, the “reaction rate (Vmax)” value is roughly 0.5 per second.
